Results reported in patent WO2018087143A2 (dated 2018).
Where a chain is given by its changes, count along the chain named.

B1: Nivolumab (IgG2 format, as used in the experiments of the filing) (antibody, V domains shown)
VH: QVQLVESGGGVVQPGRSLRLDCKASGITFSNSGMHWVRQAPGKGLEWVAVIWYDGSKRYYADSVKGRFTISRDNSKNTLFLQMNSLRAEDTAVYYCATNDDYWGQGTLVTVSS
VL: EIVLTQSPATLSLSPGERATLSCRASQSVSSYLAWYQQKPGQAPRLLIYDASNRATGIPARFSGSGSGTDFTLTISSLEPEDFAVYYCQQSSNWPRTFGQGTKVEIKR
B2: 273_C01_A12 (antibody, human IgG2, kappa, V domains shown)
VH: EVQLVQSGAEVKKPGSSVKVSCKASGYTFTSYYVHWVRQAPGQGLEWMGGIIPIFGTANYAQKFQGRVTITADESISTAYMELSSLRSEDTAVYYCARDLHGYSYGYPGYWGQGTLVTVSS
VL: DIVMTQSPLSLPVTLGQPASISCRSSQSLVYSDANTYLNWFQQRPGQSPRRLIYEVSNRESGVPDRFSGSGSATDFTLKISRVEAEDVGVYYCMQGTQLPLTFGGGTKVEIKR
B3: 273_C12_C05 (original clone) (antibody, human IgG2, kappa, V domains shown)
VH: B2 VH with I76T
VL: B2 VL with S32H, A34G, E60D, A73D, T97A, Q98Y, L99R, G105Q

Tests used:
[1] = target: T1, cynomolgus monkey PD-1-rCD4 (cynomolgus monkey; rat); experiment: SPR (BIAcore T100), IgG2 captured on anti-human Fc, PD-1 injected, 1:1 fit
[2] = target: PD-1 expressed on Jurkat cells (NFAT-luc2/PD-1 Jurkat Cells, Promega, CS187102) (UniProt Q15116 25-288, limits assumed); experiment: cell-based or functional assay
[3] = target: T1, cynomolgus monkey PD-1-rCD4; experiment: SPR, ratio of KD values, Table 2
human PD-1-rCD4 [4] = target: T2, human PD-1-rCD4 (human; rat, UniProt Q15116 25-170; P05540 207-392, limits assumed); experiment: SPR (BIAcore T100), IgG2 captured on anti-human Fc, PD-1 injected, 1:1 fit
T2 construct: Analyte in SPR

PD-1-Fc [5] = target: T3, PD-1-Fc (UniProt Q15116 25-167, limits assumed); experiment: competition ELISA: PD-1-Fc (0.8 nM) premixed with 1 nM antibody, added to captured PD-L1-rCD4 (competitor)
T3 construct: not shown: Fc part, detected with anti-human IgG Fc

PD-1-Fc [6] = target: T3, PD-1-Fc; experiment: competition ELISA: PD-1-Fc (0.8 nM) premixed with 8 nM antibody, added to captured PD-L1-rCD4 (competitor)
PD-1-Fc [7] = target: T3, PD-1-Fc; experiment: competition ELISA: PD-1-Fc (0.8 nM) premixed with 0.5 nM antibody, added to captured PD-L1-rCD4 (competitor)
mouse PD-1 = target: T4, mouse PD-1 (mouse, UniProt Q02242 25-167, limits assumed); experiment: SPR (BIAcore T100), IgG2 captured on anti-human Fc, PD-1 injected, 1:1 fit
T4 construct: also called murine PD-1
T4 sequence (looked up): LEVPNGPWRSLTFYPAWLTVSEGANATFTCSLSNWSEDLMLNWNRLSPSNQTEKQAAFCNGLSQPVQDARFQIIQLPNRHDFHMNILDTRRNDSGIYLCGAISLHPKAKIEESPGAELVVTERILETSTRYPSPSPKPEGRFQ

human PD-1-rCD4 [8] = target: T2, human PD-1-rCD4; experiment: SPR (BIAcore T100), IgG2 captured on anti-human Fc, PD-1 injected, 1:1 fit; Table 1 prints 3.8
[9] = target: T1, cynomolgus monkey PD-1-rCD4; experiment: SPR (BIAcore T100), IgG2 captured on anti-human Fc, PD-1 injected, 1:1 fit; Table 1 prints 8.7

T3 sequence (Q15116 25-167 limits assumed): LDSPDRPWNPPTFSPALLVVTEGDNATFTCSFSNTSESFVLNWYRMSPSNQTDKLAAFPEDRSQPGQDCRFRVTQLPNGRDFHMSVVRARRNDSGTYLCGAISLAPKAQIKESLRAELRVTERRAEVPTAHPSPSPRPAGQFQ
T1 sequence (P05540 207-392): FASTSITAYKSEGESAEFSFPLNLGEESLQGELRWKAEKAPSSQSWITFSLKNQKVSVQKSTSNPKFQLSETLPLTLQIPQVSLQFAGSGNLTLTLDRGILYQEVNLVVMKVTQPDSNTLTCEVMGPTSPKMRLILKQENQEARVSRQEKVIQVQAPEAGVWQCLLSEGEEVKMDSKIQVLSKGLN
T2 sequence (Q15116 other isoform, or with tags, fused parts or gaps limits assumed): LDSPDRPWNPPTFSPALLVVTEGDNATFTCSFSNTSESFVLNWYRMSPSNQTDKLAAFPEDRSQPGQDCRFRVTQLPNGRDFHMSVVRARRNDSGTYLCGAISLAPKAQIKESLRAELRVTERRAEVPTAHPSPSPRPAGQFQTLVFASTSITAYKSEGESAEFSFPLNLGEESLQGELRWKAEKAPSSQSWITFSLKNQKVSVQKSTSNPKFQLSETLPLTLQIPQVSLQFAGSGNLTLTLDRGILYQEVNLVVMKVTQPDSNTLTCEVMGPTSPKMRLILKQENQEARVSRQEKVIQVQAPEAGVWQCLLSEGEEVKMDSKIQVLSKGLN
Sequence of PD-1 expressed on Jurkat cells (NFAT-luc2/PD-1 Jurkat Cells, Promega, CS187102) (Q15116 25-288 limits assumed): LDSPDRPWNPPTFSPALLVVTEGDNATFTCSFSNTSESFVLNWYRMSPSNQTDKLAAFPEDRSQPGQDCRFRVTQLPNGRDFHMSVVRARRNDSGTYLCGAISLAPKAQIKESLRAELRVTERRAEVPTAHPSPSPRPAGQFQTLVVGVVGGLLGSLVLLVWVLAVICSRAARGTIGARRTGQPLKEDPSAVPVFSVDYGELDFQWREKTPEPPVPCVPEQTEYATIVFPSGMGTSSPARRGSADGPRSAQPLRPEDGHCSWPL

| Binder | Kd [1] [nM] | EC50, NFAT-luciferase reporter activity (PD-1/PD-L1 cell reporter assay) [2] [nM] | Fold Difference (Kd on cynomolgus PD-1 against Kd on human PD-1) [3] [fold] | koff [1] [s⁻¹] | kon [1] [M⁻¹ s⁻¹] | Kd (human PD-1-rCD4 [4]) [nM] | koff (human PD-1-rCD4 [4]) [s⁻¹] | kon (human PD-1-rCD4 [4]) [M⁻¹ s⁻¹] | % inhibition of the PD-1/PD-L1 interaction (PD-1-Fc [5]) [%] | % inhibition of the PD-1/PD-L1 interaction (PD-1-Fc [6]) [%] | % inhibition of the PD-1/PD-L1 interaction (PD-1-Fc [7]) [%] | Kd (mouse PD-1) [nM] | koff (mouse PD-1) [s⁻¹] | Kd (human PD-1-rCD4 [8]) [nM] | Kd [9] [nM] |
| --- | --- | --- | --- | --- | --- | --- | --- | --- | --- | --- | --- | --- | --- | --- | --- |
| B1 | 5.22 |  |  |  |  |  |  |  |  |  |  |  |  |  |  |
| B2 | 21 | 11.7 | 2.1 | 0.0115 | 548000 | 10 | 0.0061 | 606000 | ~99 | 99 | ~75 |  |  |  |  |
| B3 | 8.7 | 9.35 | 2.29 | 0.0034 | 387000 | 3.8 | 0.0015 | 392000 | ~99 | 99 | ~75 | 6400 | 0.00357 | 3.84 | 8.77 |
